This note sets out measurements from paper PMC4987296 (The Journal of Cell Biology, 2016).

The target in assay [1] is SNX27 PDZ domain in the presence of VPS26A (p.M112V) (rat | human, UniProt Q8K4V4;O75436, p.M112V). Description: ITC. In general terms: ITC needs no label: the signal is the heat of the interaction.
In assay [2] the target is SNX27 PDZ domain in the presence of VPS26A (p.K93E) (rat | human, UniProt Q8K4V4;O75436, p.K93E). Description: ITC.
A further assay has as its target GFP-VPS26A (p.K297X) (human, UniProt O75436 1-296). The experiment in a line: affinity purification with mass spectrometry.

Chain of GFP-VPS26A (p.K297X) (O75436 1-296): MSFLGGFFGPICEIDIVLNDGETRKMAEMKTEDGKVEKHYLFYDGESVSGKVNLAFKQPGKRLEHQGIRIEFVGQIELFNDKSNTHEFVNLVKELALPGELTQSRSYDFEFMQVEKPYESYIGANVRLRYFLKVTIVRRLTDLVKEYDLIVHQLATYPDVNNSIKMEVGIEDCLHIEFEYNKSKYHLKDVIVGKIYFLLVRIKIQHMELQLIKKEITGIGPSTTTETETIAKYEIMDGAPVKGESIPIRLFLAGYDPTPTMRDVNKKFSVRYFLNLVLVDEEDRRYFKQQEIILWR
Chain of SNX27 PDZ domain in the presence of VPS26A (p.K93E) (O75436 whole entry K93E, the tested form may be a part, one chain of several): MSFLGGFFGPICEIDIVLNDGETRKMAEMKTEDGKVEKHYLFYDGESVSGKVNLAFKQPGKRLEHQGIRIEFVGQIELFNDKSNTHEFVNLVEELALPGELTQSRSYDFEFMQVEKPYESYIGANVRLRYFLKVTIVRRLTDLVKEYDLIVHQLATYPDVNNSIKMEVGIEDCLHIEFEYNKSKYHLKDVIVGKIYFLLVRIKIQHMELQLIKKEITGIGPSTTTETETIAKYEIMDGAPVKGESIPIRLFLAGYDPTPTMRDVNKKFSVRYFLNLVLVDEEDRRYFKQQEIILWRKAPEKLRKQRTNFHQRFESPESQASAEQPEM
Chain of SNX27 PDZ domain in the presence of VPS26A (p.M112V) (O75436 whole entry M112V, the tested form may be a part, one chain of several): as the sequence (O75436 whole entry K93E, the tested form may be a part, one chain of several) above, with E93K, M112V counted along it

On to PPESESKV [Kir3.3 peptide (PPESESKV)], for which the “fold enhancement of binding over SNX27 PDZ domain alone” value in assay [1] and in assay [2] was > 10 fold each time.

B1: DENND4C (natural protein)
chain: not shown
In the case of B1, the “SILAC enrichment ratio, mutant over wild-type GFP-VPS26A” value in the assay with GFP-VPS26A (p.K297X) amounted to 6.55.

B2: PKD2 (natural protein)
chain: MVNSSRVQPQQPGDAKRPPAPRAPDPGRLMAGCAAVGASLAAPGGLCEQRGLEIEMQRIRQAAARDPPAGAAASPSPPLSSCSRQAWSRDNPGFEAEEEEEEVEGEEGGMVVEMDVEWRPGSRRSAASSAVSSVGARSRGLGGYHGAGHPSGRRRRREDQGPPCPSPVGGGDPLHRHLPLEGQPPRVAWAERLVRGLRGLWGTRLMEESSTNREKYLKSVLRELVTYLLFLIVLCILTYGMMSSNVYYYTRMMSQLFLDTPVSKTEKTNFKTLSSMEDFWKFTEGSLLDGLYWKMQPSNQTEADNRSFIFYENLLLGVPRIRQLRVRNGSCSIPQDLRDEIKECYDVYSVSSEDRAPFGPRNGTAWIYTSEKDLNGSSHWGIIATYSGAGYYLDLSRTREETAAQVASLKKNVWLDRGTRATFIDFSVYNANINLFCVVRLLVEFPATGGVIPSWQFQPLKLIRYVTTFDFFLAACEIIFCFFIFYYVVEEILEIRIHKLHYFRSFWNCLDVVIVVLSVVAIGINIYRTSNVEVLLQFLEDQNTFPNFEHLAYWQIQFNNIAAVTVFFVWIKLFKFINFNRTMSQLSTTMSRCAKDLFGFAIMFFIIFLAYAQLAYLVFGTQVDDFSTFQECIFTQFRIILGDINFAEIEEANRVLGPIYFTTFVFFMFFILLNMFLAIINDTYSEVKSDLAQQKAEMELSDLIRKGYHKALVKLKLKKNTVDDISESLRQGGGKLNFDELRQDLKGKGHTDAEIEAIFTKYDQDGDQELTEHEHQQMRDDLEKEREDLDLDHSSLPRPMSSRSFPRSLDDSEEDDDEDSGHSSRRRGSISSGVSYEEFQVLVRRVDRMEHSIGSIVSKIDAVIVKLEIMERAKLKRREVLGRLLDGVAEDERLGRDSEIHREQMERLVREELERWESDDAASQISHGLGTPVGLNGQPRPRSSRPSSSQSTEGMEGAGGNGSSNVHV
For the molecule B2, the “SILAC enrichment ratio, mutant over wild-type GFP-VPS26A” value with GFP-VPS26A (p.K297X) turned out to be 17.2.
